The target in test [1] is serum fucosylated PSA (prostate specific antigen) (human) (UniProt P07288). Description: sandwich ELISA, anti-PSA antibody capture, biotin-lectin detection, pH 7.4; sera of subgroup Negative (GS5 or less), n=2. On the technique in general: In an ELISA, binding on a coated surface is turned into a signal by an enzyme label.
Test [2] shares this target. Put plainly: sandwich ELISA, anti-PSA antibody capture, biotin-lectin detection, pH 7.4; serum of Prostate cancer 7 (GS 8).
Test [3] has the same target. Description: sandwich ELISA, anti-PSA antibody capture, biotin-lectin detection, pH 7.4; serum of Prostate cancer 6 (GS 7).
Test [4] has the same target. Put plainly: sandwich ELISA, anti-PSA antibody capture, biotin-lectin detection, pH 7.4; serum of Prostate cancer 4 (GS 6).
For test [5] the target is unchanged. Description: sandwich ELISA, anti-PSA antibody capture, biotin-lectin detection, pH 7.4; serum of Prostate cancer 9 (GS 8).
The target is the same in test [6]. Description: sandwich ELISA, anti-PSA antibody capture, biotin-lectin detection, pH 7.4; serum of Prostate cancer 8 (GS 8).
Test [7] has the same target. Description: sandwich ELISA, anti-PSA antibody capture, biotin-lectin detection, pH 7.4; sera of subgroup GS7, n=2.
The target is the same in test [8]. Put plainly: sandwich ELISA, anti-PSA antibody capture, biotin-lectin detection, pH 7.4; sera of subgroup GS6, n=2.
Test [9] shares this target. Put plainly: sandwich ELISA, anti-PSA antibody capture, biotin-lectin detection, pH 7.4; serum of Prostate cancer 1 (GS 4).
The target is the same in test [10]. Description: sandwich ELISA, anti-PSA antibody capture, biotin-lectin detection, pH 7.4; serum of Prostate cancer 2 (GS 5).
For test [11] the target is unchanged. Put plainly: sandwich ELISA, anti-PSA antibody capture, biotin-lectin detection, pH 7.4; serum of Healthy 2.
For test [12] the target is unchanged. Description: sandwich ELISA, anti-PSA antibody capture, biotin-lectin detection, pH 7.4; sera of the prostate cancer patient group (n=9).
The target is the same in test [13]. Description: sandwich ELISA, anti-PSA antibody capture, biotin-lectin detection, pH 7.4; serum of Healthy 6.
Test [14] shares this target. Put plainly: sandwich ELISA, anti-PSA antibody capture, biotin-lectin detection, pH 7.4; serum of Prostate cancer 3 (GS 6).
Test [15] has the same target. Put plainly: sandwich ELISA, anti-PSA antibody capture, biotin-lectin detection, pH 7.4; serum of Healthy 1.
Test [16] has the same target. Description: sandwich ELISA, anti-PSA antibody capture, biotin-lectin detection, pH 7.4; serum of Healthy 7.
The target is the same in test [17]. Description: sandwich ELISA, anti-PSA antibody capture, biotin-lectin detection, pH 7.4; serum of Healthy 5.
Test [18] shares this target. Put plainly: sandwich ELISA, anti-PSA antibody capture, biotin-lectin detection, pH 7.4; serum of Healthy 3.
The target is the same in test [19]. Put plainly: sandwich ELISA, anti-PSA antibody capture, biotin-lectin detection, pH 7.4; sera of the healthy person group (n=7).
The target is the same in test [20]. Description: sandwich ELISA, anti-PSA antibody capture, biotin-lectin detection, pH 7.4; serum of Healthy 4.
Test [21] has the same target. Put plainly: sandwich ELISA, anti-PSA antibody capture, biotin-lectin detection, pH 7.4; sera of subgroup GS8 or more, n=3.
For test [22] the target is unchanged. Description: sandwich ELISA, anti-PSA antibody capture, biotin-lectin detection, pH 7.4; serum of Prostate cancer 5 (GS 7).
For test [23] the target is unchanged. Put plainly: sandwich ELISA, anti-PSA antibody capture, biotin-lectin detection, lectin reaction pH 7.4; serum of Healthy 1.
The target is the same in test [24]. Put plainly: sandwich ELISA, anti-PSA antibody capture, biotin-lectin detection, lectin reaction pH 9.6; serum of Prostate cancer 4.
The target is the same in test [25]. Description: sandwich ELISA, anti-PSA antibody capture, biotin-lectin detection, lectin reaction pH 7.4; serum of Prostate cancer 4.
For test [26] the target is unchanged. Description: sandwich ELISA, anti-PSA antibody capture, biotin-lectin detection, lectin reaction pH 9.6; serum of Healthy 1.

Consider “Aleuria aurantia lectin (AAL), biotin-labeled (from UniProt P18891 2-313)”, for which the AAL reaction value (mean value) in test [1] worked out at 932 U/mL; in [7], 993 U/mL; in [8], 1040 U/mL; in [21], 1070 U/mL. Besides, the AAL reaction value (median value) in [1] was 932 U/mL; in test [7], 993 U/mL; in test [8], 1040 U/mL; in test [12], 1010 U/mL; in test [19], 1030 U/mL; in test [21], 1010 U/mL. Further, the AAL reaction value in test [2] amounted to 1210 U/mL; in test [3], 962 U/mL; in test [4] it was 926 U/mL; in test [5], 988 U/mL; in test [6], 1010 U/mL; in test [9] it was 831 U/mL. The AAL reaction value in test [10] is 1030 U/mL; in [11] it was 855 U/mL; in test [13], 1190 U/mL; in test [14], 1150 U/mL; in test [15], 1100 U/mL; in [16], 1030 U/mL. Besides, the AAL reaction value in [17] was 32.3 U/mL; in [18], 1060 U/mL; in [20], 115 U/mL; in [22], 1020 U/mL. Further, the values for the AAL reaction value (average value) in test [12] and in [19] were 1020 U/mL and 769 U/mL, respectively.

With “Amanita muscaria lectin (AML), biotin-labeled”, the AML reaction value worked out at 21.2 U/mL in test [23], 151 U/mL in [24] and 141 U/mL in [25].

Take “Naematoloma sublateritium lectin (NSL), biotin-labeled”: the NSL reaction value turned out to be 178 U/mL in [23], 283 U/mL in test [24], 42.3 U/mL in [26] and 400 U/mL in [25].

With “Pholiota squarrosa lectin peptide (PhoSL peptide), biotin-labeled”, the PhoSL peptide reaction value in test [23] worked out at 1 U/mL; in test [24], 234 U/mL; in test [25] it was 102 U/mL.

Take “Stropharia rugosoannulata lectin (SRL), biotin-labeled”: the SRL reaction value in test [23] came to 20 U/mL; in test [24], 234 U/mL; in test [26] it was 16.8 U/mL; in [25], 146 U/mL.

Values taken from patent US20200264182A1, “METHOD FOR DETECTING PROSTATE CANCER” (J-OIL MILLS, INC., priority 2017, published 2020).
